The record followed here is patent US20250282885A1 (VST BIO, published 2025).

In assay [1] the target is T1, human Sdc2 (human, UniProt P34741 19-144, limits assumed).
T1 construct: Antigen of the Octet tandem binning, loaded on biosensors at 100 nM; also called huSdc2; hSdc2
Kind of assay: Kd (human Sdc2), summary table of the mAbs.

The target of assay [2] is T1, human Sdc2. Kind of assay: Octet BLI, heading box over the sensorgram. Here is the method: (§1) In order to characterize the binding affinity and in vivo/in vitro functional ability of the twelve clones generated by the previous studies and disclosed in Table 1, a series of assays were performed on each clone. These assays measured the affinity of each antibody clone for human, pig, and mouse Sdc2 using an Octet® binding assay system. Additionally, the functional ability of each clone to inhibit VEGFA-driven permeability (see Santiago, et al. (2021) J Am Heart Assoc. 10(18):e020521) was assessed in two therapeutic settings: a “prevention” study in which three concentrations of antibody (5 μg/ml, 10 μg/ml, 15 μg/ml, 20 μg/ml, and/or 40 μg/ml depending on the study) were pre-incubated for an hour before administration of 100 ng/ml of VEGFA, and a “treatment” study in which 3 hours of pre-treatment with 100 ng/ml VEGFA were followed by treatment with antibody at 20 μg/ml or 40 μg/ml. Results are shown for 8-G17 in FIG. 8 and FIG. 9, 20-H19-AB in FIG. 10 and FIG. 11 (FIG. 12 for monkey ECs), R3-P3-C11 in FIG. 13 and FIG. 14, R4M-P3-E06 in FIG. 15 and FIG. 16, R3-P3-E09 in FIG. 17 and FIG. 18, R3-P1-C02 in FIG. 19 and FIG. 20, R3-P3-A12 in FIG. 21 and FIG. 22, R4M-P3-A12 in FIG. 23 and FIG. 24, and R4M-P1-A10 in FIG. 25 and FIG. 26.

Another assay addresses T2, mouse Sdc2 (mouse, UniProt P43407 19-145, limits assumed).
T2 construct: Immobilised on Maxisorp plates for panning and ELISA; also called mSdc2; moSdc2
Kind of assay: Octet BLI, heading box over the sensorgram. Here is the method:
as §1
On the technique in general: In BLI a coated tip is dipped into the sample, and binding shifts an interference pattern.

Assay [3] has as its target T1, human Sdc2. Kind of assay: Octet tandem binning; saturating Ab f3 19838-6N03-A.
Assay [4] deals with T1, human Sdc2. The assay can be described thus: Octet tandem binning; saturating Ab m2 19838-8G17-A.
Assay [5] concerns the target T1, human Sdc2. The assay can be described thus: Octet tandem binning; saturating Ab f9 19838-6-E17-A.
Assay [6] deals with T1, human Sdc2. The assay can be described thus: Octet tandem binning; saturating Ab f12 19838-6-N03-A.
The target of assay [7] is T1, human Sdc2. The assay can be described thus: Octet tandem binning; saturating Ab m1 19838-20H19-AB.
Assay [8] addresses T1, human Sdc2. The assay can be described thus: Octet tandem binning; saturating Ab f4 19844-R3-P3-C11. In outline: (§2)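 Human Sdc2 (100 nM) served as antigen on Octet biosensors, which were dipped in saturating antibody at 25 μg/ml for 240 s, then competing antibody at 5 μg/ml for 180 s. Competing-antibody signal was divided by its binding after a buffer-only saturation step.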

For assay [9], the target named is T1, human Sdc2. Kind of assay: Octet tandem binning; saturating Ab f6 19844-R3-P3-E09. The essentials: as §2
In assay [10] the target is T1, human Sdc2. The assay can be described thus: Octet tandem binning; saturating Ab f7 19844-R3-P3-A12.
Assay [11] addresses T1, human Sdc2. Kind of assay: Octet tandem binning; saturating Ab m7 19844-R3-P1-E07.
In assay [12] the target is T1, human Sdc2. Kind of assay: Octet tandem binning; saturating Ab f8 19844-R4M-P2-C02.
Assay [13] concerns the target T1, human Sdc2. Kind of assay: Octet tandem binning; saturating Ab m4 19844-R4M-P1-A10. The essentials: as §2
Assay [14] deals with T1, human Sdc2. Kind of assay: Octet tandem binning; Buffer in place of a saturating Ab.
For assay [15], the target named is T1, human Sdc2. The assay can be described thus: Octet tandem binning; saturating Ab m6 19838-20H19-AA (marked non-binding ligand).
Assay [16] addresses T1, human Sdc2. The assay can be described thus: Octet tandem binning; saturating Ab m8 19844-R4M-P1-B01 (marked non-binding ligand).
The next assay deals with T3, pig Sdc2 (pig, UniProt F1S0L5 19-145).
T3 construct: also called pSdc2
Kind of assay: Octet BLI, heading box over the sensorgram; the box prints nm, the table gives 1.50E-08 M. The method, then:
as §1

T1 sequence (P34741 19-144 limits assumed): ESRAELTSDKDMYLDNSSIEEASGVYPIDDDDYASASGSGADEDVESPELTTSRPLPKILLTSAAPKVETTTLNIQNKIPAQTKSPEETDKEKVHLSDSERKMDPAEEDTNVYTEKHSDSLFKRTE
T2 sequence (P43407 19-145 limits assumed): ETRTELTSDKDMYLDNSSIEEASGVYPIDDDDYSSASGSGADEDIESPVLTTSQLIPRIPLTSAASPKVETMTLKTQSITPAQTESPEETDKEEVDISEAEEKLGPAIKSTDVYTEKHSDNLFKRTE

B1: R4M-P3-A12 (antibody, human IgG1, kappa, V domains shown)
VH: EVQLVESGGGVVQPGGSLRLSCAASGFTFSDHYMSWIRQAPGKGLEWVSYLSGSGTSIYYADSVKGRFTISRDNAKKSLYLQMNSLRAEDTAVYYCARVGPAAGNAFDIWGQGTMVTVSS
VL: QSVLTQPPSASGTPGQRVTISCSGSSSNIGSNYVYWYQQLPGTAPKLLIYRNNQRPSGVPDRFSGSKSGTSASLAITGLQAEDEADYYCQSYDSSLSGVVFGGGTKLTVLR
The Kd is the constant that tells how readily two partners part at equilibrium. A high value points to a looser complex. With B1, the Kd in the assay with human Sdc2 [1] is 14 nM; with human Sdc2 [2], about 14 nM; with mouse Sdc2, about 11.6 nM; with pig Sdc2 it was about 15 nM. The “raw competing-Ab binding signal” value in the assay with human Sdc2 [3] was 0.106; in the assay with human Sdc2 [4] it was 0.103; with human Sdc2 [5], 0.115; with human Sdc2 [6], 0.136; with human Sdc2 [7], 0.153; with human Sdc2 [8], -0.0875. Besides, the “raw competing-Ab binding signal” value is -0.0526 with human Sdc2 [9]; -0.0178 with human Sdc2 [10]; 0.132 in the assay with human Sdc2 [11]; 0.0077 with human Sdc2 [12]; -0.0712 with human Sdc2 [13]; 0.0926 with human Sdc2 [14]. The “raw competing-Ab binding signal” value turned out to be 0.165 with human Sdc2 [15] and 0.0929 with human Sdc2 [16].
